Positions count from the first letter of the chain named. Names and notes keep the numbering of the source.
Substrate: O=[N+]([O-])c1ccc(O[C@@H]2O[C@H](CO)[C@@H](O)[C@H](O)[C@H]2O)cc1
Experiment: purified protein
[1] = WT-1 preparation, absorbance followed 1 h
[2] = tested with WT-1, error exceeds value, poorly determined fit

B1: β-glucosidase B (BglB) (Paenibacillus polymyxa) (protein)
chain: MSENTFIFPATFMWGTSTSSYQIEGGTDEGGRTPSIWDTFCQIPGKVIGGDCGDVACDHFHHFKEDVQLMKQLGFLHYRFSVAWPRIMPAAGIINEEGLLFYEHLLDEIELAGLIPMLTLYHWDLPQWIEDEGGWTQRETIQHFKTYASVIMDRFGERINWWNTINEPYCASILGYGTGEHAPGHENWREAFTAAHHILMCHGIASNLHKEKGLTGKIGITLNMEHVDAASERPEDVAAAIRRDGFINRWFAEPLFNGKYPEDMVEWYGTYLNGLDFVQPGDMELIQQPGDFLGINYYTRSIIRSTNDASLLQVEQVHMEEPVTDMGWEIHPESFYKLLTRIEKDFSKGLPILITENGAAMRDELVNGQIEDTGRHGYIEEHLKACHRFIEEGGQLKGYFVWSFLDNFEWAWGYSKRFGIVHINYETQERTPKQSALWFKQMMAKNGF
Km [1]: 5.4 ± 0.88 mM
kcat [1]: 0.6198 ± 0.056 s⁻¹

B2: β-glucosidase B (BglB) (Paenibacillus polymyxa; Q22T) (protein)
chain: B1 chain with Q22T
Km [2]: 99.02 ± 247.88 mM
kcat [2]: 0.00433 ± 0.001 s⁻¹

B3: β-glucosidase B (BglB) (Paenibacillus polymyxa; W438D) (protein)
chain: B1 chain with W438D
Km (tested with WT-2): 10.28 ± 2.14 mM
kcat (tested with WT-2): 0.1765 ± 0.0275 s⁻¹

B4: β-glucosidase B (BglB) (Paenibacillus polymyxa; F155G) (protein)
chain: B1 chain with F155G
Km (tested with WT-1): 6.10 mM
kcat (tested with WT-1): 0.3093 s⁻¹

B5: β-glucosidase B (BglB) (Paenibacillus polymyxa; W123R) (protein)
chain: B1 chain with W123R
Km [2]: 49.63 ± 324.02 mM
kcat [2]: 0.00025 ± 0.0013 s⁻¹

B6: β-glucosidase B (BglB) (Paenibacillus polymyxa; Y169M) (protein)
chain: B1 chain with Y169M
Km (tested with WT-2): 22.2 ± 5.53 mM
kcat (tested with WT-2): 0.8428 ± 0.2272 s⁻¹

B7: β-glucosidase B (BglB) (Paenibacillus polymyxa; V401A) (protein)
chain: B1 chain with V401A
Km (tested with WT-2): 8.27 ± 1.24 mM
kcat (tested with WT-2): 0.341 ± 0.0215 s⁻¹

— doi:10.1101/2019.12.23.887380v2
